Results on two molecules are retold here after PMC3956856, “Interaction of Kinase-Interaction-Motif Protein Tyrosine Phosphatases with the Mitogen-Activated Protein Kinase ERK2” (PLoS ONE, 2014).

“Also recorded” adds a separate entry of the source.

To fix the notation:
B1: extracellular signal-regulated kinase 2 (ERK2), unphosphorylated (enzyme, UniProt P63086 1-358, looked up)
chain: MAAAAAAGPEMVRGQVFDVGPRYTNLSYIGEGAYGMVCSAYDNLNKVRVAIKKISPFEHQTYCQRTLREIKILLRFRHENIIGINDIIRAPTIEQMKDVYIVQDLMETDLYKLLKTQHLSNDHICYFLYQILRGLKYIHSANVLHRDLKPSNLLLNTTCDLKICDFGLARVADPDHDHTGFLTEYVATRWYRAPEIMLNSKGYTKSIDIWSVGCILAEMLSNRPIFPGKHYLDQLNHILGILGSPSQEDLNCIINLKARNYLLSLPHKNKVPWNRLFPNADSKALDLLDKMLTFNPHKRIEVEQALAHPYLEQYYDPSDEPIAEAPFKFDMELDDLPKEKLKELIFEETARFQPGYRS
notes: ERK2 (extracellular signal-regulated kinase 2), unphosphorylated; also called MAPK; source: final SEC (Superdex 75 26/60)

For data set [1], the target named is T1, PTPSL KIMKIS (PTPSL residues 332-373) (human, UniProt Q15256 332-373).
T1 construct: PTPSL/PTPBR7 (PTPRR), residues 332-373 (KIM and KIS); human is stated for the PTPSL 332-655 construct; Recombinant, not synthetic; source: final SEC
T1 chain (looked up): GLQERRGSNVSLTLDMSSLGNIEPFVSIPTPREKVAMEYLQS
Briefly: ITC; ERK2 titrated into STEPKIM, PTPSL KIMKIS or STEP KIMKIS in the cell; 25 °C; 10 mM Tris pH 7.5, 150 mM NaCl, 0.1 mM EDTA, 0.5 mM TCEP; one-site model; triplicate. The note with it: both partners purified.

Data set [2] concerns the target T2, STEPKIM peptide (STEP residues 213-229) (mouse, UniProt P54830 213-229).
T2 construct: STEP (PTPN5, striatal enriched protein tyrosine phosphatase), residues 213-229 (KIM); mouse is stated for the STEP 213-539 construct; source: synthetic peptide (Biosynthesis, Inc.), HPLC purified, >98% purity
T2 peptide (looked up): MGLQERRGSNVSLTLDM
The data set is described as above. The note with it: both partners purified.

Data set [3] deals with T3, STEP KIMKIS peptide (STEP residues 213-256) (mouse, UniProt P54830 213-256).
T3 construct: STEP (PTPN5), residues 213-256 (KIM and KIS); mouse is stated for the STEP 213-539 construct; source: synthetic peptide (Biosynthesis, Inc.), HPLC purified, >98% purity
T3 peptide (looked up): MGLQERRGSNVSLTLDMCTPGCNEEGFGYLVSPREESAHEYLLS
The description is as above. The settings on record: both partners purified.

The next data set concerns the target p38α. The settings on record: values previously published, ref [14], [15], [17], [18]; cited from earlier work. From the text:
We used ITC measurements to determine the binding affinity of STEP and PTPSL for unphosphorylated ERK2 ( Table 1; Figure S1). […] This complex has a ∼3-times lower Kd (tighter binding) than the next tightest complex, ERK2:PTPSL, and a nearly 70-fold greater affinity than the weakest complex, p38α:HePTP [15]. Like STEP, PTPSL binds ERK2 more tightly (∼3.5-fold) than p38α. We also tested peptides that include the kinase specificity s ... || We also generated a chimeric protein in which we fused the PTPSLKIMKIS to STEPCAT (PSchimera; Figure 1A ). […] Thus, they only adopt a single conformation when they bind their respective MAPKs. This is different from the MAPK-binding domains (MKBD) of MAPK phosphatases (MKP; dual specificity phosphatases; DUSPs), [26]. In MKPs, the KIM sequence is part of a stable, folded domain and thus adopts a single, ordered conformation in both the unbound and MAPK-bound states, [28]. […] Our ... || (+ 1 further places)

In data set [4] the target is T4, ERK2 (Rattus norvegicus, UniProt P63086).
T4 construct: gene Mapk1; made in house
Nature of the data set: SAXS of resting-state complexes with ERK2. The note with it: ERK2:PTPSL complex; 50 mM HEPES pH 6.8, 150 mM NaCl, 5 mM dithiothreitol.

Data set [5] concerns the target T4, ERK2. Briefly: Isothermal titration calorimetry with ERK2. In kind it is binding. Here is the method:
The PTPSLKIM peptide (residues 331–348), STEPKIM (residues 213–229) and STEPKIMKIS (residues 213–256) were synthesized, HPLC purified and verified by mass spectrometry (MS) (>98% purity; Biosynthesis, Inc.). Expression and purification of ERK2 and PTPSLKIMKIS (residues 332–373) was carried out as previously described, [15]. PTPSL (residues 332–655, human), STEP (residues 213–539, mouse) and PSChimera (PTPSL residues 332–373 with STEP residues 257–539; gene synthesized by DNA 2.0) were expressed and purified using the protocol previously described in detail for STEPCAT (residues 244–539). The DUSP16 MAPK binding domain (residues 5–138, human) was expressed and purified as previously described. All purified proteins were stored at −80 °C until use at which point they were thawed and exchanged into the appropriate buffer using size exclusion chromatography (SEC; Superdex 75 26/60; GE Healthcare). The final protein buffer was dependent on the experiment performed. For ITC experiments, the final SEC purification was performed in ITC buffer (10 mM Tris pH 7.5, 150 mM NaCl, 0.1 mM EDTA, 0.5 mM TCEP); for SAXS experiments, the final SEC purification was performed in SAXS buffer (50 mM HEPES pH 6.8, 150 mM NaCl, 5 mM dithiothreitol). PTPSLKIM, STEPKIM and STEPKIMKIS peptides were solubilized in ITC buffer prior to ITC measurements.
ITC experiments were performed at 25 °C using a VP-ITC microcalorimeter (Microcal Inc.). Titrant (10 μL per injection) was injected into the sample cell over a period of 20 seconds with a 250 second interval between titrations to allow for complete equilibration and baseline recovery. 28 injections were delivered during each experiment and the solution in the sample cell was stirred at 307 rpm to ensure rapid mixing. To determine the thermodynamic parameters (ΔH, ΔS, ΔG) and binding constants (K) of the ERK2:PTPSLKIM, ERK2:PTPSL, ERK2:STEP and ERK2:PSChimera interactions, PTPSLKIM, PTPSL, STEP and PSChimera were titrated into ERK2. To determine the same parameters for the ERK2:STEPKIM, ERK2:PTPSLKIMKIS and ERK2:STEPKIMKIS interaction, ERK2 was titrated into the peptides. Titrants were chosen based on the amount of purified protein/peptide available for the experiment. For all titrations the concentrations were slightly varied to ensure independence of the Kd from the protein/peptide concentrations. Data were analyzed with a one-site binding model assuming a binding stoichiometry of 1∶1 using Origin 7.0 software. A nonlinear least-squares algorithm and the titrant and sample cell concentrations were used to fit the heat flow per injection to an equilibrium binding equation, providing values of the stoichiometry (n), change in enthalpy (ΔH) and binding constant (K). All data were repeated in triplicate.
(In ITC the heat of successive injections is recorded.)

The target in data set [6] is B1. Nature of the data set: ITC; PTPSLKIM, PTPSL, STEP or PSChimera titrated into ERK2 in the cell; 25 °C; 10 mM Tris pH 7.5, 150 mM NaCl, 0.1 mM EDTA, 0.5 mM TCEP; one-site model; triplicate. The settings on record: both partners purified.
Data set [7] has as its target T4, ERK2. The note with it: structural model from cross-linking, MS and molecular modeling; ref [24]; cited from earlier work. From the text:
In this model, PTPSLCAT binds ERK2 in an orientation in which the catalytic site is positioned near the ERK2 phosphorylation loop. This is different from the p38 ... || Figure 3 Regulatory protein-MAPK interaction strengths. The binding strengths of each KIM-PTP (KIM peptides and KIM-containing MKBDs (in orange font), light blue; KIMKIS peptides, light purple; proteins, light pink) to p38α and ERK2 represented from weakest to tightest (largest Kd to smallest Kd) binding affinity; ‘^†’ indicates values previously published, [15], [17], [18]. KIM-PTP:MAPK complexes determined to be extended using SAXS written in normal text; KIM-PTP:MAPK complexes determined to be compact written in italics; *, compact nature of the ERK2-PTPSL complex determined by ...

On to B1, for which the dH was -21.6 kcal/mol in data set [1], -27.9 kcal/mol in data set [2] and -29.2 kcal/mol in data set [3].

B2: PTPSL (residues 332-655, human) (domain or fragment, UniProt Q15256 332-655, looked up)
chain: GLQERRGSNVSLTLDMSSLGNIEPFVSIPTPREKVAMEYLQSASRILTRSQLRDVVASSHLLQSEFMEIPMNFVDPKEIDIPRHGTKNRYKTILPNPLSRVCLRPKNVTDSLSTYINANYIRGYSGKEKAFIATQGPMINTVDDFWQMVWQEDSPVIVMITKLKEKNEKCVLYWPEKRGIYGKVEVLVISVNECDNYTIRNLVLKQGSHTQHVKHYWYTSWPDHKTPDSAQPLLQLMLDVEEDRLASQGRGPVVVHCSAGIGRTGCFIATSIGCQQLKEEGVVDALSIVCQLRMDRGGMVQTSEQYEFVHHALCLYESRLSAET
notes: PTPSL/PTPBR7 (PTPRR, PTP STEP-like), human, residues 332-655 (KIM, KIS and catalytic domain); The results loosely call this construct 'full-length PTPSL'; the construct is residues 332-655; also called PTPBR7; PTPRR; source: final SEC
By Kd is commonly meant the free concentration of one partner at which half of the binding sites on the other are occupied at equilibrium, for simple one-to-one binding. In the case of B2, the Kd at p38α was 382 ± 65 nM. Further, the “aggregation of the ERK2:PTPSL complex in SAXS samples” value in the data set with ERK2 [4] is recorded as “persistently exhibited the typical hallmarks of aggregation”. In addition, in the data set with ERK2 [5] (ERK2, ITC), the “relative binding to ERK2 (in words)” value is “more strongly than does HePTP”. Moreover, the “tighter binding to ERK2 than the PTPSLKIM peptide” value with ERK2 [5] (ERK2, ITC, versus PTPSLKIM) is given as around 4 times. Also, the “tighter binding to ERK2 than to p38α (fold difference in affinity)” value with ERK2 [5] (ITC Kd, ERK2 versus p38α) was around 3.5 fold. For the same molecule, in the data set with ERK2 [5] (ITC, ERK2 versus p38α), the “affinity for ERK2 compared with p38α (in words)” value is “higher binding affinity for ERK2 than for p38α; also recorded: bind more strongly to ERK2”. For the same molecule, in the data set with ERK2 [5] (unphosphorylated ERK2, ITC, 25 °C, 10 mM Tris pH 7.5, 150 mM NaCl, 0.1 mM EDTA, 0.5 mM TCEP, average and standard deviation, triplicate), the TΔS is -12.8 ± 2.1 kcal/mol. Besides, in data set [6], the dissociation constant (Kd) was 108 nM and the dH is -22.3 kcal/mol. The “shape of the ERK2:PTPSL resting-state complex (in words)” value in the data set with ERK2 [7] was “compact, with ERK2 and PTPSL associating in a side-by-side manner”.
